Experimental data from paper PMC11198818, “Positive charges promote the recognition of proteins by the chaperone SlyD from Escherichia coli” (PLOS ONE, 2024).
cellulose membrane = Whatman 540 cellulose membrane solid support derivatized with two β-Ala residues; βAla = NCCC(=O)O

How the values were obtained:
[1] = target: C-terminally hexahistidine-tagged SlyD from Escherichia coli (E. coli) (UniProt P0A9K9); test: ITC; VP-ITC, 30°C, 10 mM potassium phosphate pH 7.6 or 7.8; His-tagged SlyD or variant 30 μM in the cell; HiPIP precursor injected, 200 μM (Fig 3) or 100 μM (Fig 4)
[2] = target: single-exchange SlyD variants of the hydrophobic active site (F84A, F84N, F96A, F96G, F96N); test: as above
[3] = target: T1, C-terminally hexahistidine-tagged SlyD from Escherichia coli (E. coli, UniProt P0A9K9 1-196); test: ITC
T1 chain: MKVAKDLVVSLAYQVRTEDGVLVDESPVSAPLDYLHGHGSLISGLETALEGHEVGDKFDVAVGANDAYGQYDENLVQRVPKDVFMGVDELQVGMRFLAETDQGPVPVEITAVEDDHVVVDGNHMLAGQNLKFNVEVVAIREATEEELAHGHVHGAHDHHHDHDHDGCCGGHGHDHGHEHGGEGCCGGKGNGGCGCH

[4] = target: SlyD F84N, C-terminally His-tagged (E. coli, UniProt P0A9K9 1-196, F84N); test: ITC
[5] = target: SlyD E89A, C-terminally His-tagged (E. coli, UniProt P0A9K9 1-196, E89A); test: ITC
[6] = target: SlyD E113A, C-terminally His-tagged (E. coli, UniProt P0A9K9 1-196, E113A); test: ITC
[7] = target: SlyD F96G, C-terminally His-tagged (E. coli, UniProt P0A9K9 1-196, F96G); test: ITC
[8] = target: SlyD F96N, C-terminally His-tagged (E. coli, UniProt P0A9K9 1-196, F96N); test: ITC
[9] = target: SlyD F84N/F96N, C-terminally His-tagged (E. coli, UniProt P0A9K9 1-196, F84N | F96N); test: ITC
[10] = target: SlyD F96A, C-terminally His-tagged (E. coli, UniProt P0A9K9 1-196, F96A); test: ITC
[11] = target: T2, SlyD E108A, C-terminally His-tagged (E. coli, UniProt P0A9K9 1-196, E108A); test: ITC; VP-ITC, 30°C, 10 mM potassium phosphate pH 7.6 or 7.8; His-tagged SlyD or variant 30 μM in the cell; HiPIP precursor injected, 200 μM (Fig 3) or 100 μM (Fig 4); conditions: both partners purified
T2 construct: SlyD, Escherichia coli; not shown: His6, C-terminal, kept
T2 sequence: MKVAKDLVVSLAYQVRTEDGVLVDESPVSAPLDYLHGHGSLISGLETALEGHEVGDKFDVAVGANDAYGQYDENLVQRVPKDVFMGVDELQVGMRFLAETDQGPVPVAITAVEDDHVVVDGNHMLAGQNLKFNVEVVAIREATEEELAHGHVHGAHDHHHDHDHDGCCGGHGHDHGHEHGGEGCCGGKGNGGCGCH

[12] = target: T3, C-terminally hexahistidine-tagged SlyD from Escherichia coli (E. coli, UniProt P0A9K9 1-196); test: as above; conditions: both partners purified
T3 construct: SlyD, chaperone and FKBP-family prolyl isomerase, Escherichia coli; also called His-tagged SlyD; wild type; not shown: His6, C-terminal, kept
T3 sequence: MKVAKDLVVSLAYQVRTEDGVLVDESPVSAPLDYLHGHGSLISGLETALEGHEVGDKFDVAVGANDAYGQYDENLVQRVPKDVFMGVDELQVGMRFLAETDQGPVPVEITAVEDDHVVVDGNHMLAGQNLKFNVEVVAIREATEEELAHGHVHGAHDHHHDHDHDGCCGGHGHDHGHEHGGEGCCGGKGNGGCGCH

[13] = target: T4, SlyD D101A, C-terminally His-tagged (E. coli, UniProt P0A9K9 1-196, D101A); test: as above; conditions: both partners purified
T4 construct: SlyD, Escherichia coli; not shown: His6, C-terminal, kept
T4 sequence: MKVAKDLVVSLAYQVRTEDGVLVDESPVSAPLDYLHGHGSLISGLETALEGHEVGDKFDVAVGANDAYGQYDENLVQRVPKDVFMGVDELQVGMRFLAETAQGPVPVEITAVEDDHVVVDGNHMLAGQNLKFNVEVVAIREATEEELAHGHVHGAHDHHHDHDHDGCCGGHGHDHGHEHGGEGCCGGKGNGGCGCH

[14] = target: T5, SlyD E113A, C-terminally hexahistidine-tagged (Escherichia coli, UniProt P0A9K9 1-196, E113A); test: ITC; VP-ITC, 30°C, 10 mM potassium phosphate buffer (pH 7.6 or 7.8); SlyD variant 30 μM in the cell, HiPIP precursor 100 μM injected (2x 22 injections of 10 μL); conditions: both partners purified
T5 construct: SlyD of Escherichia coli (FKBP-type prolyl isomerase and chaperone); not shown: His6, C-terminal, kept
T5 sequence: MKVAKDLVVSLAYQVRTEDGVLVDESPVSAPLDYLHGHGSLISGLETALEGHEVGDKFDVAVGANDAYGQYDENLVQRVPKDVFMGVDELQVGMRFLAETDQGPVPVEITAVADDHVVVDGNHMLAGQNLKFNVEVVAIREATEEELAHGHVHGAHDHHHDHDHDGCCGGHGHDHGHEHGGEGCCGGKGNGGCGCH

[15] = target: T6, SlyD E89A, C-terminally hexahistidine-tagged (Escherichia coli, UniProt P0A9K9 1-196, E89A); test: as above; conditions: both partners purified
T6 construct: SlyD of Escherichia coli (FKBP-type prolyl isomerase and chaperone); not shown: His6, C-terminal, kept
T6 sequence: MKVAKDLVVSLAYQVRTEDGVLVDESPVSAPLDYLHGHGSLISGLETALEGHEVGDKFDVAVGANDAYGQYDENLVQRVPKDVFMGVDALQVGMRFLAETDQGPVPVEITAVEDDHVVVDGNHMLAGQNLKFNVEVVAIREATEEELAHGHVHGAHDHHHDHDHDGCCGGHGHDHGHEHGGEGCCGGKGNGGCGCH

[16] = target: T7, SlyD E73A, C-terminally hexahistidine-tagged (Escherichia coli, UniProt P0A9K9 1-196, E73A); test: as above; conditions: both partners purified
T7 construct: SlyD of Escherichia coli (FKBP-type prolyl isomerase and chaperone); not shown: His6, C-terminal, kept
T7 sequence: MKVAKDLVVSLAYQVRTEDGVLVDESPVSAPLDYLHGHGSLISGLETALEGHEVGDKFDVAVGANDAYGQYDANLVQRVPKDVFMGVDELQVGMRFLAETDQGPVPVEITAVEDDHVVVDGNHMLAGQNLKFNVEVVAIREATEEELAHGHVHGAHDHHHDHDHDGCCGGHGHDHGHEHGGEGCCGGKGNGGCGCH

[17] = target: T8, SlyD D115A, C-terminally hexahistidine-tagged (Escherichia coli, UniProt P0A9K9 1-196, D115A); test: as above; conditions: both partners purified
T8 construct: SlyD of Escherichia coli (FKBP-type prolyl isomerase and chaperone); not shown: His6, C-terminal, kept
T8 sequence: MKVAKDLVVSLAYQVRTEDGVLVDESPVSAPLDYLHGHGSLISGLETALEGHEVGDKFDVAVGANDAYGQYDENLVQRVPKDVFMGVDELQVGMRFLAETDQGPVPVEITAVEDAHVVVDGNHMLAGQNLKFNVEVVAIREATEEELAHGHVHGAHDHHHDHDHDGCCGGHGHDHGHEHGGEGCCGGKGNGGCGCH

[18] = target: T9, SlyD Y68S, C-terminally hexahistidine-tagged (Escherichia coli, UniProt P0A9K9 1-196, Y68S); test: as above; conditions: both partners purified
T9 construct: SlyD of Escherichia coli (FKBP-type prolyl isomerase and chaperone); not shown: His6, C-terminal, kept
T9 sequence: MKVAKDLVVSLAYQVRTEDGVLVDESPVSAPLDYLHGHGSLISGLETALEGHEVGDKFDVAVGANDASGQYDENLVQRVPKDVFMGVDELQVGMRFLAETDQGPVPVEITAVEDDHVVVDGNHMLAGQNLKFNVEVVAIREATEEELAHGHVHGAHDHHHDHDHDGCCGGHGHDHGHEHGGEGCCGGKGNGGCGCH

[19] = target: T10, SlyD from Escherichia coli, C-terminally tagged with a Strep-tag II (E. coli, UniProt P0A9K9 1-196, 35S-methionine label (peptide arrays)); test: peptide or protein array; 13-mer peptides synthesised in spots on cellulose membrane; 35S-methionine-labelled Strep-tagged SlyD incubated 2 h at room temperature, washed in TBS (31 mM Tris-HCl pH 7.6, 170 mM NaCl, 6.4 mM KCl), phosphorimaging; conditions: both partners purified
T10 construct: SlyD, chaperone and FKBP-family prolyl isomerase, Escherichia coli; also called Strep-tagged SlyD; 35S-labeled SlyD; source: E. coli BW25113 ΔdnaK (pBW-slyD-strep), soluble, purified (StrepTactin) for the peptide arrays; not shown: Strep-tag II, C-terminal, kept
T10 sequence: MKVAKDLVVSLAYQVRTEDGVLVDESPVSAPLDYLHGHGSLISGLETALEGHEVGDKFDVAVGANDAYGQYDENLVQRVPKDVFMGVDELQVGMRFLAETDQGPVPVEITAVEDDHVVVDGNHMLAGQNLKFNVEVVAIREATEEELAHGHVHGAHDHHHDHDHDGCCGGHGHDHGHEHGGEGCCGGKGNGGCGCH

Work on “HiPIP precursor with an RR>KK exchange (from UniProt P00260 38-122) (natural protein)” yielded a Kd [1] of 1180 nM and a dH [1] of -7.7 kcal/mol.

B1: wild type HiPIP precursor from Allochromatium vinosum (natural protein, UniProt P00260 1-122, looked up)
chain: MSDKPISKSRRDAVKVMLGTAAAIPMINLVGFGTARASAPANAVAADDATAIALKYNQDATKSERVAAARPGLPPEEQHCANCQFMQADAAGATDEWKGCQLFPGKLINVNGWCASWTLKAG
notes: HiPIP (high-potential iron-sulfur protein), Allochromatium vinosum; the precursor with its Tat signal peptide; Called a fully folded Tat substrate; also called RR-HiPIP; signal-peptide-containing HiPIP precursor
B1 was tested, and the Kd [2] was 4000 to 10000 nM, the Kd [3] was 400 nM and the Kd [4] was 6600 nM. It also gave a Kd [5] of 400 nM, a Kd [6] of 500 nM and a Kd [7] of 5700 nM. The Kd [8] was 8900 nM, the Kd [9] was > 360000 nM and the Kd [10] was 4900 nM. The Kd [11] was 1820 nM, the Kd [12] was ~350 nM and the dH [12] was ~-9.06 kcal/mol. It also gave a Kd [13] of 950 nM.

B2: HiPIP precursor (RR-HiPIP) from Allochromatium vinosum (natural protein)
chain: MSDKPISKSRRDAVKVMLGTAAAIPMINLVGFGTARASAPANAVAADDATAIALKYNQDATKSERVAAARPGLPPEEQHCANCQFMQADAAGATDEWKGCQLFPGKLINVNGWCASWTLKAG
modifications: HiPIP precursor; fully folded, [4Fe-4S] cluster presumed; signal peptide retained
B2 showed a Kd [14] of 493 nM, a Kd [15] of 380 nM and a Kd [16] of 321 nM. For the same molecule, the Kd [17] was 272 nM and the Kd [18] was 299 nM.

B3: HiPIP precursor with an RR>QQ exchange (natural protein)
chain: MSDKPISKSQQDAVKVMLGTAAAIPMINLVGFGTARASAPANAVAADDATAIALKYNQDATKSERVAAARPGLPPEEQHCANCQFMQADAAGATDEWKGCQLFPGKLINVNGWCASWTLKAG
modifications: HiPIP precursor; [4Fe-4S] cluster presumed; RR>QQ positions derived from primer hip-QQ-F, which encodes DKPISKSQQDAVKVML
In the case of B3, the Kd [12] is reported as 38700 ± 2000 nM.

B4: twin-lysine peptide in an oligoglycine environment (GGGGGXXGGGGGG, X = K) (peptide)
peptide: Ac-GGGGGKKGGGGGG-{βAla-βAla-cellulose membrane}
notes: the printed pattern GGGGGXXGGGGGG with X = K; The acetyl group and the spacer are told in the methods for the spot synthesis in general; also called lysines in a glycine environment; source: synthetic peptide, spot synthesis on cellulose membrane
B4: binds [19].

B5: twin-arginine peptide in an oligoglycine environment (GGGGGXXGGGGGG, X = R) (peptide)
peptide: Ac-GGGGGRRGGGGGG-{βAla-βAla-cellulose membrane}
notes: the printed pattern GGGGGXXGGGGGG with X = R; The acetyl group and the spacer are told in the methods for the spot synthesis in general; also called arginines in a glycine environment; source: synthetic peptide, spot synthesis on cellulose membrane
B5: binds [19].
